In patent US8431396B2, “Anti-angiogenic peptides” (The Cleveland Clinic Foundation, priority 2003, dated 2013):

Columns and labels:
KDR = biological target: T1, KDR (Homo sapiens, UniProt P35968); assay: VEGF165-induced KDR phosphorylation (immunoprecipitation/immunoblot); assay type: cell-based; details: 1 μg/ml; PAE-KDR cells
T1 construct: To determine whether these receptor isoforms represent full-length VEGFR-2; expressed in transfected cells; host or cells: porcine aortic endothelial (PAE) cells
T1 sequence (P35968 20-1356): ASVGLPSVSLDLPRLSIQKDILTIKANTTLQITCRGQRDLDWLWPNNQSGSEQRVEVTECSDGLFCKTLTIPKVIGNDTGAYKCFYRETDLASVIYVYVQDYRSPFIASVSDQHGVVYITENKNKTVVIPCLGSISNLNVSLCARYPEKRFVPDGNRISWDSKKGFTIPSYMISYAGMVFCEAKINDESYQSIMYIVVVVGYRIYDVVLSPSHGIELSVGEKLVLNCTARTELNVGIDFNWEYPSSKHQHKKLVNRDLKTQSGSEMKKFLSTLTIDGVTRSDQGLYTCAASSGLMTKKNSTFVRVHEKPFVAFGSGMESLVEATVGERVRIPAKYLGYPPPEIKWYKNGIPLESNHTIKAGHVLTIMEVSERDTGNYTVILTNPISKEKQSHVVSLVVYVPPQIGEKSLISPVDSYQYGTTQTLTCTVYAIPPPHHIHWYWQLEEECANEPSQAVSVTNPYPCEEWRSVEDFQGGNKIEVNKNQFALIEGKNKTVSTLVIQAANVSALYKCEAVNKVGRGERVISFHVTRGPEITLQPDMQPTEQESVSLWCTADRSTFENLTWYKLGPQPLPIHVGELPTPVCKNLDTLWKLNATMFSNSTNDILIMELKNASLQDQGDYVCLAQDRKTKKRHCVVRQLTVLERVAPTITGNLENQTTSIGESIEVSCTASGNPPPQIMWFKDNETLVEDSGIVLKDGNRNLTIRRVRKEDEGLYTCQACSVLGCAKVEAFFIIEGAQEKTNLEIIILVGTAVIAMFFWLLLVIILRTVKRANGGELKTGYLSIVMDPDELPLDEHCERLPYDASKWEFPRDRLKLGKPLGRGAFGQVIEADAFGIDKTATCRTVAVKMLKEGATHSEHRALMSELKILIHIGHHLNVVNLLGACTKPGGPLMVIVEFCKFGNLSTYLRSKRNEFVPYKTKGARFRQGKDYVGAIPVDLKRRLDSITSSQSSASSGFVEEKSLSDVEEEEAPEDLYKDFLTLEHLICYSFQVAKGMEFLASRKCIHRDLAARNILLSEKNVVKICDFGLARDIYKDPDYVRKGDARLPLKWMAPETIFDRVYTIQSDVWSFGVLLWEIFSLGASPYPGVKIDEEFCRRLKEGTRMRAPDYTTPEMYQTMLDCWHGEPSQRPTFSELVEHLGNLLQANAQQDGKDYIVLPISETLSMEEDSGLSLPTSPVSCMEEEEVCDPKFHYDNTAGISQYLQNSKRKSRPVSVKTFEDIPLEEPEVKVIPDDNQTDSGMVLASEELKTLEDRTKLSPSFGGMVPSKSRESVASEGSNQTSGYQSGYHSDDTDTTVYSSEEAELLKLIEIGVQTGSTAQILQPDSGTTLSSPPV
Description: PDGF-BB-mediated phosphorylation was examined similarly in PAESPDGFR-β cells (anti-PDGFR-β; top right panel). […] PDGF-BB-mediated phosphorylation of PDGFR-β in PAE-PDGFR-β cells overexpressing TIMP3 (top right). KDR protein or PDGFR-β protein was analyzed by both immunoprecipitation and immunoblotting with antibodies specific for KDR (left) or for PDGFR-β (right; A and B, second panels from top). […] Total protein levels of ERK were determined by immunoblotting with antibodies specific for ERK1/2 (anti-ERK1/2; A and B, bottom).
Cell fractions, prepared as described earlier, or immunoprecipitates of the lysates with the indicated antibodies, were subjected to SDS-PAGE. Proteins were detected with horseradish peroxidase-conjugated antibodies specific for either rabbit or mouse IgG (Amersham Pharmacia, Piscataway, N.J.) followed by enhanced chemiluminescence.

endothelial cells = assay: Competitive displacement of [125I]TIMP3 from the surface of endothelial cells; assay type: binding; details: unlabeled VEGF 2 μg/ml, TIMP3 10 μg/ml
Description: Immunoprecipitation of cell lysates with antibodies specific for TIMP3 was followed by immunoblotting with antibodies specific for KDR (top). As a control for KDR receptor, cell lysates were immunoprecipitated with anti-bodies specific for KDR and probed with antibodies specific for KDR Immunoprecipitation with antibodies specific for KDR and immunoblotting with antibodies specific for TIMP3 (bottom) were carried out on PAE-KDR cells exposed to recombinant TIMP3 or PAE-KDR-vector and PAE-KDR cells overexpressing TIMP3, to confirm the interaction. […] Competition with unlabeled TIMP3 was carried out to ensure specificity. […] (E) In vivo interaction of KDR and TIMP3 in human placenta. Immunoprecipitation using antibodies specific TIMP3 (top) and KDR (bottom) was followed by immunoblotting with antibodies specific for KDR (top) and TIMP3 (bottom).

PAEKDR cells [1] = assay: VEGF-stimulated actin reorganization / membrane ruffles; assay type: cell-based, porcine; details: 50 ng/ml VEGF for 15 min
Description: For immunostaining, subconfluent cells cultured on Falcon cultureslides (BD, Biosciences) were used. For surface KDR detection, cells were fixed in 1% paraformaldehyde for 10 min at 4° C. Following blocking with 1% BSA cells were incubated with anti-extracellular VEGFR-2 monoclonal antibody for 1 h at room temperature. Surface KDR was detected with biotinylated anti-mouse […] (1:1000) and Texas Red avidin D (1:1500) using standard procedures. […] The cells were fixed with 3.7% paraformaldehyde in PBS for 30 min at 4° C. and permeabilized with 0.2 Triton X-100 for 20 min at room temperature. Following rinsing with PBS the cells were incubated with fluorescein isothiocyanate (FITC)-labeled phalloidin in PBS (0.66 μg/ml, Sigma) for 20 min at room temperature washed with PBS and analyzed by fluorescence microscopy.

PAEKDR cells [2] = assay: Tube formation assay in type 1 collagen gels; assay type: cell-based, porcine; details: 50 ng/ml VEGF; three-dimensional collagen gels
Description: Type 1 collagen was mixed with 10×DMEM and 0.1 M NaOH (8:1:1), adjusted to a solution containing 10 μg/ml growth factor reduced matrigel matrix (BD, Biosciences), and then distributed in 48-well dishes. […] After 4 h of incubation at 37° C., a second layer of collagen was added, and cultures were kept under the same conditions as above described. Tube formation was examined using a phase-contrast microscopy at the indicated time points.

B1: TIMP3: tissue inhibitor of metalloproteinases-3; recombinant human form expressed in NSO myeloma cells, or wild-type expressed in transfected cells (protein, listed as Homo sapiens)
chain: MTPWLGLIVLLGSWSLGDWGAEACTCSPSHPQDAFCNSDIVIRAKVVGKKLVKEGPFGTLVYTIKQMKMYRGFTKMPHVQYIHTEASESLCGLKLEVNKYQYLLTGRVYDGKMYTGLCNFVERWDQLTLSQRKGLNYRYHLGCNCKIKSCYYLPCFVTSKNECLWTDMLSNFGYPGYQSKHYACIRQKGGYCSWYRGWAPPDKSIINATDP
B1 was tested, and the “inhibition of VEGF165-induced phosphorylation of KDR” value (KDR) was “strongly inhibited”, the “inhibition of binding of labeled TIMP3 to the surface of endothelial cells” value (endothelial cells) was “could inhibit the binding of labeled TIMP3” and the “VEGF-stimulated formation of membrane ruffles” value (PAEKDR cells [1]) was “did not form membrane ruffles”. For the same molecule, the VEGF-stimulated tube formation (PAEKDR cells [2]) was “severely compromised”.
